We go through 18 molecules from patent US20190062438A1 (CSL, published 2019).

To fix the notation:
B1: 9A2-VR5 (antibody, V domains shown)
VH: EVQLLESGGGLVQPGGSLRLSCAASGFTFSHYHMLWVRQAPGKGLEWVSSIRSSGGFTYYADSVKGRFTISRDNSKNTLYLQMNSLRAEDTAVYYCARFYDSFFDIWGQGTMVTVSS
VL: DIQMTQSPSSVSASVGDRVTITCRASQGIRPFVAWYQQKPGKAPKLLIYAASSLQSGVPSRFSGSGSGTDFTLTISSLQPEDFATYYCQQANSFPITFGQGTRLEIKR
B2: 9A2-VR9 (antibody, V domains shown)
VH: EVQLLESGGGLVQPGGSLRLSCAASGFTFSHYHMLWVRQAPGKGLEWVSSIRSSGGFTYYADSVKGRFTISRDNSKNTLYLQMNSLRAEDTAVYYCARFYDSFFDIWGQGTMVTVSS
VL: DIQMTQSPSSVSASVGDRVTITCRASQGIRPFIDWYQQKPGKAPKLLIYAASSLQSGVPSRFSGSGSGTDFTLTISSLQPEDFATYYCQQANSFPITFGQGTRLEIKR
B3: 9A2-VR11 (antibody, V domains shown)
VH: EVQLLESGGGLVQPGGSLRLSCAASGFTFSHYHMLWVRQAPGKGLEWVSSIRSSGGFTYYADSVKGRFTISRDNSKNTLYLQMNSLRAEDTAVYYCARFYDSFFDIWGQGTMVTVSS
VL: DIQMTQSPSSVSASVGDRVTITCRASQGVRPFVSWYQQKPGKAPKLLIYAASSLQSGVPSRFSGSGSGTDFTLTISSLQPEDFATYYCQQANSFPITFGQGTRLEIKR
B4: 9A2-VR6 (antibody, V domains shown)
VH: EVQLLESGGGLVQPGGSLRLSCAASGFTFSHYHMLWVRQAPGKGLEWVSSIRSSGGFTYYADSVKGRFTISRDNSKNTLYLQMNSLRAEDTAVYYCARFYDSFFDIWGQGTMVTVSS
VL: DIQMTQSPSSVSASVGDRVTITCRASQGVRPFVNWYQQKPGKAPKLLIYAASSLQSGVPSRFSGSGSGTDFTLTISSLQPEDFATYYCQQANSFPITFGQGTRLEIKR
B5: 9A2-VR12 (antibody, V domains shown)
VH: EVQLLESGGGLVQPGGSLRLSCAASGFTFSHYHMLWVRQAPGKGLEWVSSIRSSGGFTYYADSVKGRFTISRDNSKNTLYLQMNSLRAEDTAVYYCARFYDSFFDIWGQGTMVTVSS
VL: DIQMTQSPSSVSASVGDRVTITCRASQGIRPFVSWYQQKPGKAPKLLIYAASSLQSGVPSRFSGSGSGTDFTLTISSLQPEDFATYYCQQANSFPITFGQGTRLEIKR
B6: 9A2-VR8 (antibody, V domains shown)
VH: EVQLLESGGGLVQPGGSLRLSCAASGFTFSHYHMLWVRQAPGKGLEWVSSIRSSGGFTYYADSVKGRFTISRDNSKNTLYLQMNSLRAEDTAVYYCARFYDSFFDIWGQGTMVTVSS
VL: DIQMTQSPSSVSASVGDRVTITCRASQGVRPFISWYQQKPGKAPKLLIYAASSLQSGVPSRFSGSGSGTDFTLTISSLQPEDFATYYCQQANSFPITFGQGTRLEIKR
B7: 9A2-VR13 (antibody, V domains shown)
VH: EVQLLESGGGLVQPGGSLRLSCAASGFTFSHYHMLWVRQAPGKGLEWVSSIRSSGGFTYYADSVKGRFTISRDNSKNTLYLQMNSLRAEDTAVYYCARFYDSFFDIWGQGTMVTVSS
VL: DIQMTQSPSSVSASVGDRVTITCRASQGISSWLAWYQQKPGKAPKLLIYAASSLQSGVPSRFSGSGSGTDFTLTISSLQPEDFATYYCGKPVLDPITFGQGTRLEIKR
B8: 9A2-VR39.17 (antibody, V domains shown)
VH: EVQLLESGGGLVQPGGSLRLSCAASGFTFPFYHKVWVRQAPGKGLEWVSSINGRGRVTYYADSVKGRFTISRDNSKNTLYLQMNSLRAEDTAVYYCARFYDSFFDIWGQGTMVTVSS
VL: DIQMTQSPSSVSASVGDRVTITCRASQGISSWLAWYQQKPGKAPKLLIYAASSLQSGVPSRFSGSGSGTDFTLTISSLQPEDFATYYCQQANSFPITFGQGTRLEIKR
B9: 9A2-VR39.18 (antibody, V domains shown)
VH: EVQLLESGGGLVQPGGSLRLSCAASGFTFPGYVWIWVRQAPGKGLEWVSSINGRGRVTYYADSVKGRFTISRDNSKNTLYLQMNSLRAEDTAVYYCARFYDSFFDIWGQGTMVTVSS
VL: DIQMTQSPSSVSASVGDRVTITCRASQGISSWLAWYQQKPGKAPKLLIYAASSLQSGVPSRFSGSGSGTDFTLTISSLQPEDFATYYCQQANSFPITFGQGTRLEIKR
B10: 9A2-VR39.21 (antibody, V domains shown)
VH: EVQLLESGGGLVQPGGSLRLSCAASGFTFQHYHTVWVRQAPGKGLEWVSSINGRGRVTYYADSVKGRFTISRDNSKNTLYLQMNSLRAEDTAVYYCARFYDSFFDIWGQGTMVTVSS
VL: DIQMTQSPSSVSASVGDRVTITCRASQGISSWLAWYQQKPGKAPKLLIYAASSLQSGVPSRFSGSGSGTDFTLTISSLQPEDFATYYCQQANSFPITFGQGTRLEIKR
B11: 9A2-VR39.02 (antibody, V domains shown)
VH: EVQLLESGGGLVQPGGSLRLSCAASGFTFYWYHMIWVRQAPGKGLEWVSSINGRGRVTYYADSVKGRFTISRDNSKNTLYLQMNSLRAEDTAVYYCARFYDSFFDIWGQGTMVTVSS
VL: DIQMTQSPSSVSASVGDRVTITCRASQGISSWLAWYQQKPGKAPKLLIYAASSLQSGVPSRFSGSGSGTDFTLTISSLQPEDFATYYCQQANSFPITFGQGTRLEIKR
B12: 9A2-VR39.06 (antibody, V domains shown)
VH: EVQLLESGGGLVQPGGSLRLSCAASGFTFQWYHYIWVRQAPGKGLEWVSSINGRGRVTYYADSVKGRFTISRDNSKNTLYLQMNSLRAEDTAVYYCARFYDSFFDIWGQGTMVTVSS
VL: DIQMTQSPSSVSASVGDRVTITCRASQGISSWLAWYQQKPGKAPKLLIYAASSLQSGVPSRFSGSGSGTDFTLTISSLQPEDFATYYCQQANSFPITFGQGTRLEIKR
B13: 9A2-VR39.12 (antibody, V domains shown)
VH: EVQLLESGGGLVQPGGSLRLSCAASGFTFFWFNTVWVRQAPGKGLEWVSSINGRGRVTYYADSVKGRFTISRDNSKNTLYLQMNSLRAEDTAVYYCARFYDSFFDIWGQGTMVTVSS
VL: DIQMTQSPSSVSASVGDRVTITCRASQGISSWLAWYQQKPGKAPKLLIYAASSLQSGVPSRFSGSGSGTDFTLTISSLQPEDFATYYCQQANSFPITFGQGTRLEIKR
B14: 9A2-VR39.04 (antibody, V domains shown)
VH: EVQLLESGGGLVQPGGSLRLSCAASGFTFNWFQHIWVRQAPGKGLEWVSSINGRGRVTYYADSVKGRFTISRDNSKNTLYLQMNSLRAEDTAVYYCARFYDSFFDIWGQGTMVTVSS
VL: DIQMTQSPSSVSASVGDRVTITCRASQGISSWLAWYQQKPGKAPKLLIYAASSLQSGVPSRFSGSGSGTDFTLTISSLQPEDFATYYCQQANSFPITFGQGTRLEIKR
B15: 9A2-VR39.19 (antibody, V domains shown)
VH: EVQLLESGGGLVQPGGSLRLSCAASGFTFQYFNVIWVRQAPGKGLEWVSSINGRGRVTYYADSVKGRFTISRDNSKNTLYLQMNSLRAEDTAVYYCARFYDSFFDIWGQGTMVTVSS
VL: DIQMTQSPSSVSASVGDRVTITCRASQGISSWLAWYQQKPGKAPKLLIYAASSLQSGVPSRFSGSGSGTDFTLTISSLQPEDFATYYCQQANSFPITFGQGTRLEIKR
B16: 9A2-VR39.11 (antibody, V domains shown)
VH: EVQLLESGGGLVQPGGSLRLSCAASGFTFQEFHTIWVRQAPGKGLEWVSSINGRGRVTYYADSVKGRFTISRDNSKNTLYLQMNSLRAEDTAVYYCARFYDSFFDIWGQGTMVTVSS
VL: DIQMTQSPSSVSASVGDRVTITCRASQGISSWLAWYQQKPGKAPKLLIYAASSLQSGVPSRFSGSGSGTDFTLTISSLQPEDFATYYCQQANSFPITFGQGTRLEIKR
B17: 9A2-VR39.05 (antibody, V domains shown)
VH: EVQLLESGGGLVQPGGSLRLSCAASGFTFPWFHTVWVRQAPGKGLEWVSSINGRGRVTYYADSVKGRFTISRDNSKNTLYLQMNSLRAEDTAVYYCARFYDSFFDIWGQGTMVTVSS
VL: DIQMTQSPSSVSASVGDRVTITCRASQGISSWLAWYQQKPGKAPKLLIYAASSLQSGVPSRFSGSGSGTDFTLTISSLQPEDFATYYCQQANSFPITFGQGTRLEIKR
B18: 9A2-VR39.16 (antibody, V domains shown)
VH: EVQLLESGGGLVQPGGSLRLSCAASGFTFQWFNIVWVRQAPGKGLEWVSSINGRGRVTYYADSVKGRFTISRDNSKNTLYLQMNSLRAEDTAVYYCARFYDSFFDIWGQGTMVTVSS
VL: DIQMTQSPSSVSASVGDRVTITCRASQGISSWLAWYQQKPGKAPKLLIYAASSLQSGVPSRFSGSGSGTDFTLTISSLQPEDFATYYCQQANSFPITFGQGTRLEIKR

One assay has as its target T1, human CD131 (human, UniProt P32927 17-897).
T1 sequence: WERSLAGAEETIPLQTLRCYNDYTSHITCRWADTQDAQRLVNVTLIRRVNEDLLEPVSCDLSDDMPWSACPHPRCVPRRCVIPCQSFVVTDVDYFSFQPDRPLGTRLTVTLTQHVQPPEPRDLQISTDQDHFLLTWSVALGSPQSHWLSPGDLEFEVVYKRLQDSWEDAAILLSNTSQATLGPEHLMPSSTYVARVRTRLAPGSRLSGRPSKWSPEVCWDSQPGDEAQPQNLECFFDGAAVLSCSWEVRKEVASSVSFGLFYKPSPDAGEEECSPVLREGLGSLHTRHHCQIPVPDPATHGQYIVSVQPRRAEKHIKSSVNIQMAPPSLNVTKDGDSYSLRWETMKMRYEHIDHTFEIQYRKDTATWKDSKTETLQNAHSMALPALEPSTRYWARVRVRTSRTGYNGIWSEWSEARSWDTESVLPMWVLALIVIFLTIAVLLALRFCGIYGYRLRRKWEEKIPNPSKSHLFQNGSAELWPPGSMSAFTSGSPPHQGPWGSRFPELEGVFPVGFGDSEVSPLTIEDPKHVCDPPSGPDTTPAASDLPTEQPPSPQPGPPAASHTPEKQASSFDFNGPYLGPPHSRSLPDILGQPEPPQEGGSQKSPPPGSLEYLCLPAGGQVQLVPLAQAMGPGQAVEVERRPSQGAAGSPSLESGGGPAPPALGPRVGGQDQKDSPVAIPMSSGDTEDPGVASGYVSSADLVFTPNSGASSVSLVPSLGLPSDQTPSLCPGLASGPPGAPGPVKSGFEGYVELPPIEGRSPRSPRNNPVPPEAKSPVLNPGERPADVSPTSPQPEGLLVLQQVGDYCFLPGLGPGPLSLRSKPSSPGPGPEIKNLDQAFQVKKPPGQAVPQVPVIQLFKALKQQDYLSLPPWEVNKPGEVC
The assay is described as follows: cell-based or functional assay.
As for B1, the “IC50 GM-CSF, TF-1 proliferation” value was determined as 0.087 µM.
Consider B2, for which the “IC50 GM-CSF, TF-1 proliferation” value was 0.0727 µM.
For B3, the “IC50 GM-CSF, TF-1 proliferation” value turned out to be 0.353 µM.
For B4, the “IC50 GM-CSF, TF-1 proliferation” value came out at 0.25 µM.
For the molecule B5, the “IC50 GM-CSF, TF-1 proliferation” value amounted to 0.198 µM.
Regarding B6, the “IC50 GM-CSF, TF-1 proliferation” value was 0.0577 µM.
Same read-out and setting: the value for B7 was greater than 1 µM.

In the next assay the target is T1, human CD131. The assay is described as follows: cell-based or functional assay. This is another data set of the same source.
Regarding B8, the “IC50 GM-CSF, TF-1 proliferation” value turned out to be 0.00067 µM.
On to B9, for which the “IC50 GM-CSF, TF-1 proliferation” value was greater than 1 µM.
Take B10: the “IC50 GM-CSF, TF-1 proliferation” value was determined as 0.00096 µM.
The same measure, in the same setting: the value for B11 was 0.00046 µM.
B12: the “IC50 GM-CSF, TF-1 proliferation” value is 0.00185 µM.
The same measure, in the same setting: to B13 belongs 0.0251 µM.
B14: the “IC50 GM-CSF, TF-1 proliferation” value is 0.0304 µM.
Turning to B15, the “IC50 GM-CSF, TF-1 proliferation” value worked out at 0.00726 µM.
Still for that read-out and setting: to B16 belongs 0.0186 µM.
As for B17, the “IC50 GM-CSF, TF-1 proliferation” value turned out to be 0.00096 µM.
Take B18: the “IC50 GM-CSF, TF-1 proliferation” value came to 0.00607 µM.
